Key:
Asp38 [1] = target: T1, Asp38 (UniProt position 120, TFRLLDVDTPE); experiment: NMR; conditions: 298 K; 100 mM KCl, 0.5 mM NaN3 (no buffer stated); folded, no ligand
Asp38 [2] = target: T1, Asp38; experiment: stability; conditions: folded/unfolded equilibrium, no ligand
Asp143 = Asp143 (UniProt position 225, NIWSEDNADSG); experiment: NMR
Asp146 = Asp146 (UniProt position 228, SEDNADSGQ--); experiment: NMR
Asp19 = Asp19 (UniProt position 101, LIKAIDGDTVK); experiment: NMR
Asp21 = Asp21 (UniProt position 103, KAIDGDTVKLM); experiment: NMR
Asp40 [3] = target: Asp40 (UniProt position 122, RLLEVDTPETK); experiment: NMR; conditions: 298 K; 100 mM KCl, 0.5 mM NaN3 (no buffer stated); folded, no ligand
Asp77 = Asp77 (UniProt position 159, IEVEFDKGQRT); experiment: NMR
Asp83 = Asp83 (UniProt position 165, KGQRTDKYGRG); experiment: NMR
Asp95 = Asp95 (UniProt position 177, AYIYADGKMVN); experiment: NMR
Glu10 = Glu10 (UniProt position 92, KKLHKEPATLI); experiment: NMR
Glu101 = Glu101 (UniProt position 183, GKMVNEALVRQ); experiment: NMR
Glu122 = Glu122 (UniProt position 204, GNNTHEQLLRK); experiment: NMR
Glu129 = Glu129 (UniProt position 211, LLRKAEAQAKK); experiment: NMR
Glu135 = Glu135 (UniProt position 217, AQAKKEKLNIW); experiment: NMR
Glu142 = Glu142 (UniProt position 224, LNIWSEDNADS); experiment: NMR
Glu38 [4] = target: T2, Glu38 (UniProt position 120, TFRLLEVDTPE); experiment: NMR; conditions: 298 K; 100 mM KCl, 0.5 mM NaN3 (no buffer stated); folded, no ligand
Glu43 [5] = target: Glu43 (UniProt position 125, EVDTPETKHPK); experiment: NMR; conditions: 298 K; 100 mM KCl, 0.5 mM NaN3 (no buffer stated); folded, no ligand
Glu52 = Glu52 (UniProt position 134, PKKFNEKYGPE); experiment: NMR
Glu57 = Glu57 (UniProt position 139, EKYGPEASAFT); experiment: NMR
Glu67 = Glu67 (UniProt position 149, TKKMVENAKKI); experiment: NMR
Glu73 = Glu73 (UniProt position 155, NAKKIEVEFDK); experiment: NMR
Glu75 = Glu75 (UniProt position 157, KKIEVEFDKGQ); experiment: NMR
Glu38 [6] = target: T2, Glu38; experiment: stability; conditions: folded/unfolded equilibrium, no ligand
Asp40 [7] = target: Asp40 (UniProt position 122, RLLKVDTPETK); experiment: NMR; conditions: 298 K; 100 mM KCl, 0.5 mM NaN3 (no buffer stated); folded, no ligand
Glu43 [8] = target: Glu43 (UniProt position 125, KVDTPETKHPK); experiment: NMR; conditions: 298 K; 100 mM KCl, 0.5 mM NaN3 (no buffer stated); folded, no ligand
Lys38 = Lys38 (UniProt position 120, TFRLLKVDTPE); experiment: stability; conditions: cited from earlier work
Asp40 [9] = target: Asp40 (UniProt position 122, RLLLVDTPETK); experiment: NMR; conditions: folded Δ+PHS nuclease; cited from earlier work
Glu43 [10] = target: Glu43 (UniProt position 125, LVDTPETKHPK); experiment: NMR; conditions: folded Δ+PHS nuclease; cited from earlier work
His8 = His8 (UniProt position 90, STKKLHKEPAT); conditions: folded Δ+PHS nuclease; cited from earlier work
[11] = 298 K, 100 mM KCl, 0.5 mM NaN3 (no buffer stated), folded, no ligand
[12] = folded Δ+PHS nuclease, cited from earlier work

Substance: Staphylococcal nuclease Δ+PHS/L38D (Staphylococcus aureus; G50F;V51N;P117G;H124L;S128A;del44-49;L38D)
- pKa (Asp38 [1]): 7.2
- pKa (Asp38 [2]): 6.8 +/- 0.3

Substance: Staphylococcal nuclease Δ+PHS/L38D/E122Q (Staphylococcus aureus; G50F;V51N;P117G;H124L;S128A;del44-49;L38D;E122Q)
- pKa (Asp38 [1]): 6.6
- pKa (Asp38 [2]): 6.9 +/- 0.3

Substance: Staphylococcal nuclease Δ+PHS/L38E (Staphylococcus aureus; G50F;V51N;P117G;H124L;S128A;del44-49;L38E)
- pKa (Asp143; [11]): 3.8
- pKa (Asp146; [11]): 3.9
- pKa (Asp19; [11]): < 2.5
- pKa (Asp21; [11]): 6.6
- pKa (Asp40 [3]): 3.9
- pKa (Asp77; [11]): < 2.5
- pKa (Asp83; [11]): < 2.5
- pKa (Asp95; [11]): 2.3
- pKa (Glu10; [11]): 3.1
- pKa (Glu101; [11]): 3.9
- pKa (Glu122; [11]): 3.8
- pKa (Glu129; [11]): 3.9
- pKa (Glu135; [11]): 3.8
- pKa (Glu142; [11]): 4.5
- pKa (Glu38 [4]): 7.0
- pKa (Glu43 [5]): 4.4
- pKa (Glu52; [11]): 4.0
- pKa (Glu57; [11]): 3.6
- pKa (Glu67; [11]): 3.8
- pKa (Glu73; [11]): 3.4
- pKa (Glu75; [11]): 3.3
- pKa (Glu38 [6]): 7.0 +/- 0.3

Substance: Staphylococcal nuclease Δ+PHS/L38E/D77N (Staphylococcus aureus; G50F;V51N;P117G;H124L;S128A;del44-49;L38E;D77N)
- pKa (Glu38 [4]): 6.1

Substance: Staphylococcal nuclease Δ+PHS/L38E/E122D (Staphylococcus aureus; G50F;V51N;P117G;H124L;S128A;del44-49;L38E;E122D)
- pKa (Glu38 [4]): 7.4

Substance: Staphylococcal nuclease Δ+PHS/L38E/E122Q (Staphylococcus aureus; G50F;V51N;P117G;H124L;S128A;del44-49;L38E;E122Q)
- pKa (Glu38 [4]): 6.2

Substance: Staphylococcal nuclease Δ+PHS/L38E/R126Q (Staphylococcus aureus; G50F;V51N;P117G;H124L;S128A;del44-49;L38E;R126Q)
- pKa (Glu38 [4]): 7.2

Substance: Staphylococcal nuclease Δ+PHS/L38K (Staphylococcus aureus; G50F;V51N;P117G;H124L;S128A;del44-49;L38K)
- pKa (Asp143; [11]): 4.0
- pKa (Asp146; [11]): 4.0
- pKa (Asp19; [11]): < 2.5
- pKa (Asp21; [11]): 6.5
- pKa (Asp40 [7]): 3.8
- pKa (Asp83; [11]): < 2.5
- pKa (Asp95; [11]): 2.1
- pKa (Glu10; [11]): 3.1
- pKa (Glu101; [11]): 3.9
- pKa (Glu122; [11]): 3.9
- pKa (Glu129; [11]): 3.8
- pKa (Glu135; [11]): 3.9
- pKa (Glu142; [11]): 4.6
- pKa (Glu43 [8]): 4.5
- pKa (Glu52; [11]): 4.1
- pKa (Glu57; [11]): 3.6
- pKa (Glu67; [11]): 3.9
- pKa (Glu73; [11]): 3.3
- pKa (Lys38): ≥ 10.4

Substance: Staphylococcal nuclease, Δ+PHS variant (Staphylococcus aureus; G50F;V51N;P117G;H124L;S128A;del44-49)
- pKa (Asp143; [12]): 3.8
- pKa (Asp146; [12]): 3.9
- pKa (Asp19; [12]): 2.2
- pKa (Asp21; [12]): 6.5
- pKa (Asp40 [9]): 3.9
- pKa (Asp77; [12]): < 2.5
- pKa (Asp83; [12]): < 2.5
- pKa (Asp95; [12]): 2.2
- pKa (Glu10; [12]): 2.8
- pKa (Glu101; [12]): 3.8
- pKa (Glu122; [12]): 3.9
- pKa (Glu129; [12]): 3.8
- pKa (Glu135; [12]): 3.8
- pKa (Glu142; [12]): 4.5
- pKa (Glu43 [10]): 4.3
- pKa (Glu52; [12]): 3.9
- pKa (Glu57; [12]): 3.5
- pKa (Glu67; [12]): 3.8
- pKa (Glu73; [12]): 3.3
- pKa (Glu75; [12]): 3.3
- pKa (His8): 6.5

Reference: paper PMC3373015
